The source of these data is patent publication US6867010.

Experiment [1] addresses base-linker-pTp conjugate (compound 9). Description: phage crosslinked to biotinylated base-linker-pTp conjugate, captured on streptavidin beads, titered by direct infection with the beads.
Experiment [2] deals with base-linker-oligodeoxynucleotide conjugate (compound 8). Description: phage crosslinked to biotinylated base-linker-oligodeoxynucleotide conjugate, captured on streptavidin beads, titered after DNase I release.
The target is the same in experiment [3]. Description: phage crosslinked to biotinylated base-linker-oligodeoxynucleotide conjugate in EDTA, captured on streptavidin beads, titered by direct infection with the beads.
Experiment [4] has the same target. Put plainly: phage without acid peptide incubated with biotinylated oligodeoxynucleotide-peptide B conjugate, captured on streptavidin beads, phage titering.

“acid peptide A-pIII fusion displayed on acid helper phage (M13K07 helper phage with the acidic peptide A and a C-terminal GGC extension inserted at the N-terminus of pIII) (from UniProt P69168 1-3)” came in with an efficiency of phage immobilization in experiment [1] of 10%. The true immobilization efficiency in experiment [2] worked out at 80%. In experiment [3], this substance returned an efficiency of immobilization of 10%.

In experiment [4], “wildtype pIII protein on phage produced with wildtype M13K07 helper phage (from UniProt P69168 19-424)” gave a percent of phage immobilized of 0.3%.
